According to publication PMC6294515, “Structural basis of the specific interaction of SMRT corepressor with histone deacetylase 4” (Nucleic Acids Research, 2018):

B1: SRD3n: N-terminal region of SRD3 (R1128–E1289) (protein, UniProt Q9Y618 1128-1289, looked up, fragment)
chain: GMSVQLHVPYSEHAKAPVGPVTMGLPLPMDPKKLAPFSGVKQEQLSPRGQAGPPESLGVPTAQEASVLRGTALGSVPGGSITKGIPSTRVPSDSAITYRGSITHGTPADVLYKGTITRIIGEDSPSRLDRGREDSLPKGHVIYEGKKGHVLSYEGGMSVTQC
B2: I-A: SRD3c deletion construct K1316–G1390 (protein, UniProt Q9Y618 1316-1390, looked up, fragment)
chain: GRVGRAISSASIEGLMGRAIPPERHSPHHLKEQHHIRGSITQGIPRSYVEAQEDYLRREAKLLKREGTPPPPPPS
B3: II: SRD3c deletion construct P1396–S1515 (protein, UniProt Q9Y618 1396-1515, looked up, fragment)
chain: AYKTQALGPLKLKPAHEGLVATVKEAGRSIHEIPREELRHTPELPLAPRPLKEGSITQGTPLKYDTGASTTGSKKHDVRSLIGSPGRTFPPVHPLDVMADARALERACYEESLKSRPGTA

Columns and labels:
HDAC4 = conditions: cited from earlier work
From the text: In contrast to other HDACs, class IIa HDACs have low deacetylase activity ([33]). However, their HDAC domains are directly involved in the transcriptional repression of several genes by forming a supra-complex with the NCoR/SMRT-HDAC3 complex ([16],[17]).

HDAC4c D759Y = conditions: HDAC4c mutant versus wild-type; cited from earlier work
From the text: Next, we analyzed the mutational effects of SM1 mutants by OPTHiS screening (Figure 5A). […] In the peptide-complex structures, G+1, S+2 and T+4 residues on both peptides interact, directly or through water molecules, with residues on the cleft wall of the structural zinc-binding subdomain (Figure 3E). Mutations in this peptide region (G+1R, S+2D and T+4N/T+4A) altered the binding affin ... || Among the seven HDACs whose catalytic domain structures have been reported, HDAC4c is unique in that it has an open conformation when it binds to non-peptide molecules. In agreement with this, mutations at the ^+1GSI^+3 residues of two motifs and R+9 residue of the SM1 lead to a loss of its binding activity to HDAC4c/-5c (Figures 1 and 5). The class IIa HDAC-specific residues (D759, H842, and F871), which are located at the cleft to and entrance to the catalytic zinc-binding site, interact directly or indirectly with these residues of bound peptides (Figure 3D and E). Further, HDAC4c mutants o ...

HDAC4c = assay: Interaction with HDAC4c (yeast two-hybrid, GST pull-down, BiFC); conditions: for interaction with HDAC4c, domain mapping: yeast two-hybrid only, strain EGY48, LexA-fused HDAC4c and SRD3c deletion constructs, liquid β-galactosidase assay
HDAC5c = assay: Interaction with HDAC5c (yeast two-hybrid, GST pull-down, BiFC); conditions: for interaction with HDAC5c, domain mapping: yeast two-hybrid only, strain EGY48, LexA-fused HDAC5c and SRD3c deletion constructs, liquid β-galactosidase assay

Molecule	interaction with HDAC4c, domain mapping (HDAC4c)	interaction with HDAC5c, domain mapping (HDAC5c)	other results
SMRT: silencing mediator for retinoid and thyroid receptor, general corepressor	–	–	change in deacetylase activity of HDAC4 in the presence of SMRT (HDAC4): lack of noticeable changes in the deacetylase activity of HDAC4
GSITQGIPR [SM1, conserved GSI motif 1361-1369 of SRD3c, …]	–	–	binding affinity to HDAC4c D759Y (HDAC4c D759Y): abrogated interactions
B1	–	–	binding to HDAC4c (HDAC4c; yeast two-hybrid (β-galactosidase), GST pull-down, BiFC in HEK293 cells, result in words): marginal interaction; binding to HDAC5c (HDAC5c; yeast two-hybrid (β-galactosidase), in vitro GST pull-down, BiFC in HEK293 cells, result in words): marginal interaction
B2	independently interacted with HDAC4c/-5c	independently interacted with HDAC4c/-5c	–
B3	independently interacted with HDAC4c/-5c, although the binding strength of region II was relatively weaker than that of region I-A	independently interacted with HDAC4c/-5c, although the binding strength of region II was relatively weaker than that of region I-A	–
